# In patent US20030180295A1, “Angiocidin: a Cys-Ser-Val-Thr-Cys-Gly specific tumor cell adhesion receptor” (Philadelphia Health and Education Corporation, priority 1999, published 2003):
# No end group written: not given here. *: point of attachment. Acm = CC(=O)NC*
# Legend:
# [1] = target: T1, biotin-angiocidin complex binding to TSP-1 (Homo sapiens, UniProt P55036, INS254GER); assay: Biotin-avidin receptor binding assay: competition; settings: for competition of biotin-angiocidin binding to TSP-1: Example 23, FIGS. 29 and 30; for peptide competition of TSP-1 receptor binding: Example 25, peptide 1 mg/ml, FIG. 32
# T1 sequence (P55036 with tags, fused parts or gaps INS254GER): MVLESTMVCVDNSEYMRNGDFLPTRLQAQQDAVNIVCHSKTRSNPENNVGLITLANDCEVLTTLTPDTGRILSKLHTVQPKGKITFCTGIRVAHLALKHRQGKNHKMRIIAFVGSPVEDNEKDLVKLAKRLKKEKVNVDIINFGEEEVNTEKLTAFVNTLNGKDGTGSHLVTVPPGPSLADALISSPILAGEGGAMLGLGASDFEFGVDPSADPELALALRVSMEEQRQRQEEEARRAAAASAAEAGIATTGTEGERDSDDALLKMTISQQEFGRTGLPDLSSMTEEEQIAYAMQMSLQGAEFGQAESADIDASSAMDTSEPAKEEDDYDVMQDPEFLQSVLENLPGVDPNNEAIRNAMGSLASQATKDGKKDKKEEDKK
# Procedure: In the following experiments, TSP-1 was covalently bound to a substrate, biotinylated angiocidin was added to the plate, and avidin-peroxidase was added to measure how much biotinylated angiocidin was attached to the TSP-1. The avidin-peroxidase was measured using a spectrophotometer at an absorbance of 450 nm.
# Free angiocidin was added to the system to compete with the biotinylated angiocid in. […] Immobilized BSA was used as a negative control.
# The TSP-1 peptide Cys-Ser-Val-Thr-Cys-Gly (SEQ ID NO: 1) was added to the system to compete with the TSP-1 on the plate for binding with the biotinylated angiocidin. The scrambled peptide Val-Cys-Thr-Gly-Ser-Cys (SEQ ID NO: 15) was used as a negative control and had no effect.
# The avidin-biotin system discussed above was used to evaluate the competitive effect of various peptides on the binding of TSP-1 and angiocidin. […] The scrambled peptide Val-Cys-Thr-Gly-Ser-Cys-Gly (SEQ ID NO: 21) and the d-orientation peptide d-Cys-Ser-Val-Thr-Cys-Gly (SEQ ID NO: 22) were used as negative controls.
# [2] = target: T2, TSP-1 (Homo sapiens, UniProt P07996); assay: Affinity Sensor System (resonant mirror biosensor): binding to TSP-1 coupled to cuvette; settings: peptide alone, TSP-1 immobilized in cuvette
# T2 sequence (P07996 19-1170): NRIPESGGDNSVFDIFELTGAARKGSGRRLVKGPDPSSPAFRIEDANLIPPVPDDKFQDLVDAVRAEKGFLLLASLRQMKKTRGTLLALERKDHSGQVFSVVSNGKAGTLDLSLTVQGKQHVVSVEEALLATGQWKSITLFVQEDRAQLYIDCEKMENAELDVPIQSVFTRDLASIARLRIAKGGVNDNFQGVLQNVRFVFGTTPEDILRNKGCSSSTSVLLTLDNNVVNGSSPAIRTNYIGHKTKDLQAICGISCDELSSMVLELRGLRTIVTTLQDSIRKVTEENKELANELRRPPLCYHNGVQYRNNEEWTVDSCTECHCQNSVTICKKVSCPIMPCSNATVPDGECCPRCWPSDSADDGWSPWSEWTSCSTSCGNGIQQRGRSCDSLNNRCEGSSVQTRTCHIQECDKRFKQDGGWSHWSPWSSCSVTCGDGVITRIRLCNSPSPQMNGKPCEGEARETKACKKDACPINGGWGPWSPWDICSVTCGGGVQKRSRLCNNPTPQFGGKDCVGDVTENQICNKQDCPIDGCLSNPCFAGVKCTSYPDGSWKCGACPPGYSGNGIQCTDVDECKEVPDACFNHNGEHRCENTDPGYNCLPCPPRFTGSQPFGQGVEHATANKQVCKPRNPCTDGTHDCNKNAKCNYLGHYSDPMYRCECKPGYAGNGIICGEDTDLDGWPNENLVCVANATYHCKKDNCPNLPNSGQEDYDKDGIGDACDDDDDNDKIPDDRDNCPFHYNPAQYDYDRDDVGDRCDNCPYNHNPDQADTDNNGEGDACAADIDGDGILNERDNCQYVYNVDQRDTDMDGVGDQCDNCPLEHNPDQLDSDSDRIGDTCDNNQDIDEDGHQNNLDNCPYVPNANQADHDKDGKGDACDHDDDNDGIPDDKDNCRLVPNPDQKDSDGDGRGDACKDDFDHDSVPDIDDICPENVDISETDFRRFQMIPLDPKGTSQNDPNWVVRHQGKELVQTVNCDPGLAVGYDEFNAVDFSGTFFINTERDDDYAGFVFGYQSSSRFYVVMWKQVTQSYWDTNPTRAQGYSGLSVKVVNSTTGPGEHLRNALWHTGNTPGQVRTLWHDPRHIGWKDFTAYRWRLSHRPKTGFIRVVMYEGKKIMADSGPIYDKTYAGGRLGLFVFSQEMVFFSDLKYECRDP
# Procedure: (§1) Binding of undenatured (in the ligand blot protocol above, the receptor is denatured by SDS) recombinant receptor to TSP-1 was evaluated using the Affinity Sensor System, Cambridge, UK. This is an optical binding method that uses a cuvette to which either ligand or receptor is covalently coupled. A laser beam is used to detect bound proteins to the protein-derivatized cuvette surface. This method is highly sensitive and measures both the association and dissociation rate constants for ligand receptor interactions. The instrument assumes that one molecule of receptor binds one molecule of TSP-1 and calculates the dissociation constant (KD) according to the following relationships:
# 1) kass[R][TSP-1]=kdiss[R-TSP-1] at equilibrium, where kass is the second order rate constant for association and kdiss is the first order rate constant for dissociation
# 2) KD=[R][TSP-1]/[R-TSP-1]=kdiss/kass
# 3) [R-TSP-1]t=[R-TSP-1]eq[1-exp(-kont)], where the instrument response measure in arc seconds is proportional to receptor-TSP-1 complex R-TSP-1].
# 4) kon=kass[L]+kdiss where kon is the pseudo-first order rate constant for receptor TSP-1 interaction.
# (§2) About 1 μg of TSP-1 was coupled to the cuvette through its amino groups to COOH groups on the cuvette surface. Unreacted groups on the cuvette surface were then blocked with ethanolamine and albumin. […] A dissociation constant of […] was calculated from a plot of the pseudo first order rate constant for association versus the concentration of the receptor, as shown in FIG. 7. Instrument response vs time readings shown in FIG. 8, where the instrument response is proportional to the concentration of receptor-TSP-1 complex, were used to plot the data points on FIG. 7.
# (§3) […] The peptides used were Val-Cys-His-Ser-Lys-Thr-Arg (SEQ ID NO: 8), Val-Cys(Acm)-His-Ser-Lys-Thr-Arg (SEQ ID NO: 9), and Pro-His-Ser-Arg-Asn (SEQ ID NO: 10). The first two peptides are derived from the binding portion of the receptor, where it interacts with the Cys-Ser-Val-Thr-Cys-Gly (SEQ ID NO: 1) portion of the TSP-1 protein. The third peptide is a control.
# [3] = system: Bovine aortic endothelial cells (BAEC); assay: ALAMAR BLUE cell viability assay; format: cell-based; settings: for cell viability, angiocidin and fragments: Example 27, FIG. 34
# Procedure: Bovine aortic endothelial cells (BAEC), human umbilical vein endothelial cells (HUVEC), fibroblast cells, A549 human lung carcinoma cells (A549), MDA-MB231 human breast carcinoma cells (MB231), MCF7 human breast carcinoma cells (MCF7) were treated with 37 μg/ml of receptor, or buffer alone, for 24 hours. Viability of the cells was measured using the ALAMAR BLUE™ assay, which measures the capacity of cells to metabolize the ALAMAR BLUE™ dye. The ALAMAR BLUE™ assay (available from Biosource International, Camarillo, Calif.) quantitatively measures the proliferation of cell lines and can establish the relative cytotoxicity of chemical agents. The assay incorporates a fluorometric/colorimetric growth indicator based on detection of metabolic activity. The system incorporates an oxidation-reduction (redox) indicator that both fluoresces and changes color in response to chemical reduction of growth medium resulting from cell growth. This causes the redox indicator to change from its oxidized, non-fluorescent, blue form to its reduced, fluorescent, red form. Data can be collected using either fluorescence-based instrumentation (530-560 nm excitation wavelength and 590 nm emission wavelength) or absorbance-based instrumentation (570 nm and 600 nm).
# BAEC and BSM cells were treated with increasing concentrations of angiocidin (0, 0.625, 1.25, 2.5, 5, 15, 26 and 37 μg/ml) for 24 hours. Cell viability was measured using the ALAMAR BLUE Tm assay. […] In contrast, BSM cells are unaffected.
# The methods of Example 21 were followed, except BAEC cells were used. Additionally, TSP-1 was added at both 20 μg/ml and 5 μg/ml.
# As discussed in Example 19 above, angiocidin was added to BAEC cells. Fragments of angiocidin were added as well. […] GST was used as a negative control. V36-R42, the active site of the antisecretory factor, had no effect, illustrating that angiocidin plays a different role from antisecretory factor.
# Bovine aortic endothelial cells (BAEC) were cultured overnight in serum-free media containing either 37 μg/ml his-tagged angiocidin or his-tagged GST. Both angiocidin and GST were expressed in bacteria transformed with the pTrcHisA expression vector and purified on nickel affinity chromatography under non-denaturing conditions. Viability was measured by the ALAMAR BLUE™ assay.
# This study examined the effect of anti-angiocidin antibody on angiocidin-mediated inhibition of BAEC viability. BAEC were cultured overnight in serum-free media containing either 5 μg/ml angiocidin, 5 μg/ml angiocidin plus 100 μg/ml control IgG, or 5 μg/ml angiocidin plus 100 μg/ml anti-angiocidin IgG. Viability was measured using the ALAMAR BLUE™ assay, described above.
# The endothelial cells (BAEC) were incubated overnight 37 μg/ml of the angiocidin, fragments, and GST. Viability was measured using the ALAMAR BLUE™ assay.
# [4] = system: B16-F10 Melanoma Cells; assay: Cell adhesion to immobilized receptor peptides; format: cell-based, mouse; settings: Example 12, FIG. 14
# Procedure: For the adhesion assay, in a 96 well plate, duplicate wells were covered with either TSP-1 (40 μg/ml), fibronectin (40 μg/ml), or and 1% bovine serum albumin (BSA). The wells were dried out overnight and then blocked with BSA. 100 μl of a suspension containing 2×10^5 cells were plated in the protein covered wells and incubated at 37^□ C. for 20 minutes to 1 hour. The non-adherent cells were removed and the wells were washed with a Hepes buffer. The adherent cells were fixed with 2.5% glutaraldehyde for 10 minutes and stained with 0.2% Giemsa. The stain was washed off and the cells were counted in a field of 1 mm square. Cells adhering to BSA were considered background while cells adhering to fibronectin were the positive control.
# The method of Example 12 was followed except the receptor peptides Val-Cys-His-Ser-Lys-Thr-Arg (SEQ ID NO: 8) and Val-Cys(Acm)-His-Ser-Lys-Thr-Arg (SEQ ID NO: […]) were immobilized on the plates. TSP-1 and fibronectin were also immobilized on plates, as well as negative control peptides (Ala-Ser-Val-Thr-Ala-Arg (SEQ ID NO: 11) and Pro-His-Ser-Arg-Asn (SEQ ID NO: 10)) and bovine serum albumin. […] This provides support for the theory that another protein may be associated with TSP-1 and its receptor, or that the receptor is released and rebound to the membrane of the cell by another protein.
# [5] = target: T3, receptor-TSP-1 complex (Homo sapiens, UniProt P55036, INS254GER); assay: Affinity Sensor System: peptide competition of receptor binding to immobilized TSP-1; settings: 10 fold molar excess of peptide
# T3 construct: Full length cDNA cloned in the PBK-CMV vector was used as a template; 6xHis (pTrcHisA leader) (N); made in house; host or cells: bacteria (pTrcHisA vector)
# T3 sequence (P55036 with tags, fused parts or gaps INS254GER): T1 sequence (P55036 with tags, fused parts or gaps INS254GER)
# Procedure: as §1, §2, §3
# [6] = target: T2, TSP-1; assay: Optical binding of angiocidin fragments to TSP-1 derivatized cuvette; settings: test proteins at 10 nm in PBS buffer
# Procedure: This study examines the amino terminal (Met1-Lys132) and carboxy terminal (IIe248-Lys380) portions of angiocidin (SEQ ID NOS: 24 and 25, respectively). The binding of undenatured recombinant angiocidin fragments was compared to full length angiocidin. GST was used as a negative control. Binding was evaluated using an optical binding method that uses a cuvette to which TSP-1 is covalently coupled. A laser beam was used to detect whether the test protein (fragments, angiocidin, or GST) is bound to the TSP-1 derivatized cuvette surface. The cuvette was derivatized with 1 μg of TSP-1. The cuvette surfaces were blocked with a 1% BSA solution to prevent nonspecific binding. The test proteins were added at a concentration of […] in a PBS buffer.
substance,measurement,setting,value
"CSVTCG (cysteine pairing not given here) [Cys-Ser-Val-Thr-Cys-Gly (SEQ ID NO: 1), TSP-1 peptide]",competition of biotin-angiocidin binding to TSP-1,[1],effectively competed with TSP-1 for the biotin-angiocidin complex
same,peptide competition of TSP-1 receptor binding,[1],effectively inhibited binding
KVWVLPI,peptide competition of TSP-1 receptor binding,[1],inhibited the binding
"Pro-His-Ser-Arg-Asn (PHSRN) [Pro-His-Ser-Arg-Asn (SEQ ID NO: 10), negative control peptide, reference compound]",direct binding to immobilized TSP-1,[2],did not
"V36-R42: the active site of the antisecretory factor (VCHSKTR; UniProt P55036 36-42, looked up, fragment) [reference compound]","cell viability, angiocidin and fragments",[3],had no effect
"VCTGSC (cysteine pairing not given here) [Val-Cys-Thr-Gly-Ser-Cys (SEQ ID NO: 15), scrambled peptide, negative control]",competition of biotin-angiocidin binding to TSP-1,[1],had no effect
Val-Cys(Acm)-His-Ser-Lys-Thr-Arg (VC(Acm)HSKTR),direct binding to immobilized TSP-1,[2],bind directly to the immobilized TSP-1
same,cell adhesion to immobilized peptide,[4],"cause the cells to adhere to the plates, with similar affinity to the positive controls fibronectin and TSP-1"
Val-Cys(Acm)-Thr-Gly-Ser-Cys(Acm) (VC(Acm)TGSC(Acm)) [scrambled peptide],"extent of receptor binding, % of buffer control",[5],88%
carboxy terminal fragment: carboxy terminal (IIe248-Lys380) portion of angiocidin (SEQ ID NO: 25),anti-endothelial activity compared to angiocidin,"[3]; 37 μg/ml, overnight",had activity levels similar to the negative control
same,"cell viability, angiocidin and fragments",[3],did not affect cell viability
same,binding to TSP-1 derivatized cuvette,[6],show no binding activities
"d-Gly-Cys(Acm)-Thr-Val-Ser-Cys(Acm) (GCTVSC; not fully specified (residues 2, 3, 4, 5, 6); printed as d-Gly-Cys(Acm)-Thr-Val-Ser-Cys(Acm); cysteine pairing not given here; also: d- prefix stated for the peptide (mirror image, D-orientation)) [mirror image acetylated peptide]",peptide competition of TSP-1 receptor binding,[1],inhibited binding
